Data: patent publication US20210246166A1 (Bayer, published 2021)
Bridge positions count the residues as written; N and C are the ends. Square brackets hold non-standard residues; d marks the D form. Ends that are not written are not given here. Oic = O=C(O)[C@@H]1C[C@@H]2CCCC[C@@H]2N1; tBuAla = CC(C)(C)C[C@H](N)C(=O)O; Pen = CC(C)(S)[C@H](N)C(=O)O; Sar = CNCC(=O)O

T1: recombinant human MASP1 active protease (amino acids 297-699, C-terminal His Tag) (human, UniProt P48740 297-699)
T1 sequence: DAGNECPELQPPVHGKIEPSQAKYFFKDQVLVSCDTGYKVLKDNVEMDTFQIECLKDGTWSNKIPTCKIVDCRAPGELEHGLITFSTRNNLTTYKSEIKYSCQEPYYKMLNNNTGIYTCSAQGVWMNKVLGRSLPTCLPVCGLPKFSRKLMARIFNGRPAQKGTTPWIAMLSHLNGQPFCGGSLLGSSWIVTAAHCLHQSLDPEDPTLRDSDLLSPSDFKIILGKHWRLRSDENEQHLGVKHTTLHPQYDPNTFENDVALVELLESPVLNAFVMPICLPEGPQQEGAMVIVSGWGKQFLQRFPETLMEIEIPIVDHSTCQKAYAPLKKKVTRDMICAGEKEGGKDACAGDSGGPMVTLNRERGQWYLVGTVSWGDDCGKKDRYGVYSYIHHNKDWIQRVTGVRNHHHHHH


Experiments:
[1] = target: recombinant human MASP2 active protease (amino acids 297-686, C-terminal His Tag) (human, UniProt O00187 297-686); experiment: cell-based or functional assay
[2] = target: T1, recombinant human MASP1 active protease …; experiment: cell-based or functional assay

Chain of recombinant human MASP2 active protease (amino acids 297-686, C-terminal His Tag) (O00187 other isoform, or with tags, fused parts or gaps limits assumed): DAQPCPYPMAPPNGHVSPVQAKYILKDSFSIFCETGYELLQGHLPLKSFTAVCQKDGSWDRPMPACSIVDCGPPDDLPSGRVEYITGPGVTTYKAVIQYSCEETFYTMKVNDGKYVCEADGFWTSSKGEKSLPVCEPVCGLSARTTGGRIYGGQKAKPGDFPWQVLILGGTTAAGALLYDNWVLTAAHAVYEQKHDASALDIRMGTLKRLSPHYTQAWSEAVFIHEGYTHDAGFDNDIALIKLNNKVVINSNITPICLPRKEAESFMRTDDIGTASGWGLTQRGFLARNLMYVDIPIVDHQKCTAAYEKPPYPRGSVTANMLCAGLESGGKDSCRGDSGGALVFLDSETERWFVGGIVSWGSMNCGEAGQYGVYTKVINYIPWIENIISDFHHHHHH

Row | Binder | human MASP2 IC50 [1] [nM] | human MASP1 IC50 [2] [nM]
1 | ICSRSLP[Oic]I[Pen]I-OH (disulfide 2-10; N-terminus assumed; SMILES CC[C@H](C)[C@H](N)C(=O)N[C@H]1CSSC(C)(C)[C@@H](C(=O)N[C@H](C(=O)O)[C@@H](C)CC)NC(=O)[C@H]([C@@H](C)CC)NC(=O)[C@@H]2C[C@@H]3CCCC[C@@H]3N2C(=O)[C@@H]2CCCN2C(=O)[C@H](CC(C)C)NC(=O)[C@H](CO)NC(=O)[C@H](CCCNC(=N)N)NC(=O)[C@H](CO)NC1=O) [Example 368: IC+SRSLP-(Oic)-I-(Pen)+I-OH] | 1200 | 35
2 | ICSRSLP[Oic]I[Pen]IPE-OH (disulfide 2-10; N-terminus assumed; SMILES CC[C@H](C)[C@H](N)C(=O)N[C@H]1CSSC(C)(C)[C@@H](C(=O)N[C@H](C(=O)N2CCC[C@H]2C(=O)N[C@@H](CCC(=O)O)C(=O)O)[C@@H](C)CC)NC(=O)[C@H]([C@@H](C)CC)NC(=O)[C@@H]2C[C@@H]3CCCC[C@@H]3N2C(=O)[C@@H]2CCCN2C(=O)[C@H](CC(C)C)NC(=O)[C@H](CO)NC(=O)[C@H](CCCNC(=N)N)NC(=O)[C@H](CO)NC1=O) [Example 369: IC+SRSLP-(Oic)-I-(Pen)+IPE-OH] | 420 | 35
3 | ICSRSLP[Oic]I[Pen]IPE-NH2 (disulfide 2-10; N-terminus assumed; SMILES CC[C@H](C)[C@H](N)C(=O)N[C@H]1CSSC(C)(C)[C@@H](C(=O)N[C@H](C(=O)N2CCC[C@H]2C(=O)N[C@@H](CCC(=O)O)C(N)=O)[C@@H](C)CC)NC(=O)[C@H]([C@@H](C)CC)NC(=O)[C@@H]2C[C@@H]3CCCC[C@@H]3N2C(=O)[C@@H]2CCCN2C(=O)[C@H](CC(C)C)NC(=O)[C@H](CO)NC(=O)[C@H](CCCNC(=N)N)NC(=O)[C@H](CO)NC1=O) [Example 372: IC+SRSLP-(Oic)-I-(Pen)+IPE-NH2] | 660 | 36
4 | PPICSRS[tBuAla]PPI[Pen]I-NH2 (disulfide 4-12; N-terminus assumed; SMILES CC[C@H](C)[C@H](NC(=O)[C@H]1NC(=O)[C@H]([C@@H](C)CC)NC(=O)[C@@H]2CCCN2C(=O)[C@@H]2CCCN2C(=O)[C@H](CC(C)(C)C)NC(=O)[C@H](CO)NC(=O)[C@H](CCCNC(=N)N)NC(=O)[C@H](CO)NC(=O)[C@@H](NC(=O)[C@@H](NC(=O)[C@@H]2CCCN2C(=O)[C@@H]2CCCN2)[C@@H](C)CC)CSSC1(C)C)C(N)=O) [Example 371: PPIC+SRS-((tBu)A)-PPI-(Pen)+I-NH2] | 810 | 36
5 | [dF]ICSRSLP[Oic]I[Pen]IP-NH2 (disulfide 3-11; N-terminus assumed; SMILES CC[C@H](C)[C@H](NC(=O)[C@H](N)Cc1ccccc1)C(=O)N[C@H]1CSSC(C)(C)[C@@H](C(=O)N[C@H](C(=O)N2CCC[C@H]2C(N)=O)[C@@H](C)CC)NC(=O)[C@H]([C@@H](C)CC)NC(=O)[C@@H]2C[C@@H]3CCCC[C@@H]3N2C(=O)[C@@H]2CCCN2C(=O)[C@H](CC(C)C)NC(=O)[C@H](CO)NC(=O)[C@H](CCCNC(=N)N)NC(=O)[C@H](CO)NC1=O) [Example 370: fIC+SRSLP-(Oic)-I-(Pen)+IP-NH2] | 93.5 | 35
6 | [Sar]ICSRSLPPICI[Oic]D-OH (disulfide 3-11; N-terminus assumed; SMILES CC[C@H](C)[C@H](NC(=O)CNC)C(=O)N[C@H]1CSSC[C@@H](C(=O)N[C@H](C(=O)N2[C@H](C(=O)N[C@@H](CC(=O)O)C(=O)O)C[C@@H]3CCCC[C@@H]32)[C@@H](C)CC)NC(=O)[C@H]([C@@H](C)CC)NC(=O)[C@@H]2CCCN2C(=O)[C@@H]2CCCN2C(=O)[C@H](CC(C)C)NC(=O)[C@H](CO)NC(=O)[C@H](CCCNC(=N)N)NC(=O)[C@H](CO)NC1=O) [Example 367: ((N-Me)G)-IC+SRSLPPIC+I-(Oic)-D-OH] | 600 | 35
